According to article PMC11154709, “4S-fluorination of ProB29 in insulin lispro slows fibril formation” (The Journal of Biological Chemistry, 2024):

Assay: Far-UV circular dichroism (secondary structure)
Format: physicochemical
Conditions: 60 μM; statement in discussion of CD spectra
Procedure: Figure 2 Biological activity and CD spectroscopy of lispro variants.A, lispros were injected subcutaneously into diabetic mice, and blood glucose was measured over time after injection. The data presented here represent the mean ± SD of 3 to 6 biological replicates. B–E, far-UV circular dichroism spectra (60 μM lispro in […] phosphate buffer, pH 8.0). […] 4R-F, 4R-fluoroproline; 4S-F, 4S-fluoroproline.
The secondary structure of each insulin lispro variant was probed by circular dichroism spectroscopy. […] All lispro samples were further analyzed by analytical ultracentrifugation (Fig. S3). To determine the dissociation constant of each variant, we fit the data to a reversible monomer-dimer equilibrium ([29]). […]
Circular dichroism spectroscopy:
Equilibrium measurements: The circular dichroism spectra of insulin or lispro samples (60 µM in
100 mM sodium phosphate, pH 8.0) were measured at 25°C in 1 mm quartz cuvettes using a step
size of 0.5 nm and averaging time of 1 s on an Aviv Model 430 Circular Dichroism
Spectrophotom eter. A reference buffer spectrum was subtracted from each sample spectrum. […]
Analytical ultracentrifugation: […]

Substance: human insulin: 5.8 kDa peptide hormone composed of two disulfide-linked chains (A and B)
- oligomeric state at 60 μM: exists as a dimer at 60 μM
